Data on 2 substances can be found in US20200299403A1.

As a reminder, the Kd is the constant that tells how readily two partners part at equilibrium. Read a low Kd as tighter binding.

Assay [1] deals with HER2 (HER2/c-erb-2 gene product) on SKBR3 cells (UniProt P04626). Kind of assay: FACS on SKBR3 cells, Alexa 647 Protein L detection, one site specific binding fit (column head prints 'SKBR3 Cell Binding IC50, nM').
The target is the same in assay [2]. Briefly: FACS on SKBR3 cells, one site specific binding fit.

For “trastuzumab scFv (VL_VH) with pN3F at position (-1), conjugated to DBCO-MMAF”, the Kd in assay [1] was 14 nM. scFv-Fc (-1) pN3F DBCO-MMAF (Fc fusion) yielded a Kd in assay [2] of 6.8 nM.
